Consider 3 molecules from US20250136711A1 (SHANGHAI BIOTROY BIOTECHNIQUE, published 2025).

For one assay, the target named is SEMG2 (human) (UniProt Q02383). The assay can be described thus: ELISA; negative control. A general note: In an ELISA, binding on a coated surface is turned into a signal by an enzyme label.
The target of assay [1] is T1, SEMG1 recombinant protein (semenogelin-1) (human, UniProt P04279 24-462, limits assumed).
T1 construct: also called full-length SEMG1
T1 sequence (looked up): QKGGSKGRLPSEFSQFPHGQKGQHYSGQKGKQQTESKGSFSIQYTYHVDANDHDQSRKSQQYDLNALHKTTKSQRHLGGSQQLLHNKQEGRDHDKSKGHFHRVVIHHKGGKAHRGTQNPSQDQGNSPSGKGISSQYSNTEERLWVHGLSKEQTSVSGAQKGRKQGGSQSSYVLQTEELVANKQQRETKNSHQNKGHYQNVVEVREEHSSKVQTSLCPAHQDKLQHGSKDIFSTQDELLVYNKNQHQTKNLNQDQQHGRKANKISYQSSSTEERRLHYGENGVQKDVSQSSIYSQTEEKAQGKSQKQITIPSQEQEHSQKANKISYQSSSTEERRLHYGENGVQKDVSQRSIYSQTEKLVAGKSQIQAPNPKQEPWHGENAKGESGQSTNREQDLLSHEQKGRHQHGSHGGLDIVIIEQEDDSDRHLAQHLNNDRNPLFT
In words: ELISA; SEMG1 coated, antibody in 3-fold dilution series, goat anti-mouse HRP. As for the experimental part: (§1) In order to identify whether the screened monoclonal antibodies with neutralizing effect can bind to SEMG1 and SEMG2 proteins, we coated SEMG2 protein diluted in carbonate buffer (Solarbio, Beijing, China) to a final concentration of 1 μg/mL on a dedicated ELISA plate (costar, ME, USA), and the binding of 1 μg/mL mouse hybridoma antibody to SEMG2 was initially tested. According to the determination outcome, the binding and binding strength between SEMG1 or SEMG2 and the purified mouse monoclonal antibody were further analyzed by ELISA experiment, and an irrelevant mouse monoclonal antibody was taken as a negative control. Specifically, a special plate for ELISA (costar, ME, USA) was used. First, different concentrations of SEMG1 or SEMG2 recombinant proteins were dissolved in 100 μL of carbonate coating buffer (Solarbio, Beijing, China) to 2 μg/mL to coat the plate, and the negative control was coated with 100 μL of coating buffer without protein. The plates were coated overnight at 4° C. […] After washing with PBST, color developing solution (Sangon, Shanghai, China) was used for color development, 100 μL per well, the plate was placed in an incubator for 5-30 minutes, and adding 50 μL of stop solution (Sangon, Shanghai, China) to stop the reaction, and then the plate was placed in a microplate reader (Thermo Fisher, MA, USA) for chromogenic reading at 450 nm.

Assay [2] addresses T2, SEMG2 recombinant protein (semenogelin-2) (human, UniProt Q02383 24-582, limits assumed).
T2 construct: also called SMEG2
T2 sequence (looked up): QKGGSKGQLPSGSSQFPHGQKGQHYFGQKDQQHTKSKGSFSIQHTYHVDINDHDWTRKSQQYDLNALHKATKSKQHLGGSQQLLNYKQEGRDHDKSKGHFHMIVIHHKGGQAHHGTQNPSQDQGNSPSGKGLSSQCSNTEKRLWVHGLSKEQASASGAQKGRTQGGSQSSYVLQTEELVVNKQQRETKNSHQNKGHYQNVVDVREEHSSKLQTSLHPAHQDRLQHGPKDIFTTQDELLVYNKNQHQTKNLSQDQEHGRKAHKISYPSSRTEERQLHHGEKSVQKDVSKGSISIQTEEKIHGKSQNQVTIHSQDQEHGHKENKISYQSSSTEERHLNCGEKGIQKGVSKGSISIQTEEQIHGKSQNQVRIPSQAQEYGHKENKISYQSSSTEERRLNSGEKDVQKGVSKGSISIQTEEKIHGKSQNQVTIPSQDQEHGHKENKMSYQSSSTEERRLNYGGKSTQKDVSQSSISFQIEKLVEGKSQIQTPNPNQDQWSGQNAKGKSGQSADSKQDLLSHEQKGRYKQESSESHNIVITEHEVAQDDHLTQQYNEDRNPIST
The assay can be described thus: ELISA; SEMG2 coated, antibody in 3-fold dilution series, goat anti-mouse HRP. As for the experimental part: as §1

The target of assay [3] is T3, S1-26 synthetic polypeptide of SEMG1 (human).
T3 construct: also called SEMG1-26
T3 peptide: KDIFSTQDELLVYNK
In words: ELISA on coated peptide; antibody at 2.5 ug/mL; positive if OD ratio to blank >3. As for the experimental part: ⅓ overlapping peptide sequences were designed, and a peptide library consisting of 45 peptides (GenScript, Nanjing) was synthesized. Peptide matrix was prepared by using a polypeptide-coated 96-well plate (Costar, Corning), and the selected monoclonal antibody was used as the primary antibody for ELISA binding test, and SEMG1 coating was set as a positive control, and BSA coating was set as a control. The ELISA procedure was performed routinely, as described in Example 2 above. For the coated polypeptide well with OD_{experimental group}/OD_{blank group}>3, it was determined as a positive reaction, which was the corresponding antibody-bound polypeptide sequence.

The EC50 is the concentration needed to bring the measured effect to its halfway point. mIgG1: in the assay with SEMG2 (human), the EC50 was determined as 4.24 nM.

B1: 25-E10-F8-B5 (antibody, mouse IgG1, V domains shown)
VH: QVQLQQPGAELVKPGASVKMSCKASGYTFTSYNMHWVKQTPGQGLEWIGAIYPGNGDTSYNQKFKGKATLTADKSSSTAYMQLSSLTSEDSAVYYCASAMDYWGQGTSVTVSS
VL: SIVMTQTPLSLPVSLGDQASISCRSSQSLVHSNGNTYLQWYLQKPGQSPKLLIYKVSNRFSGVPDRFSGSGSGTDFTLKISRVEAEDLGVYFCSQSKHVPRTFGGGTKLEIK
notes: Mouse hybridoma monoclonal antibody; The V regions were re-cloned with murine IgG1 and murine kappa constant regions to verify activity
Regarding B1, the EC50 in assay [1] was found to be 1.26 nM; in assay [2], 1.69 nM. The binding result in assay [3] is on record as “binds”.

B2: 33-B5-C1-F5 (antibody, mouse IgG1, V domains shown)
VH: EVQLQESGAELVKPRASVKMSCKASGYTFSSYNMHWIRQTPEQGLEWIGAIYPGTGDTSYNQKFKGKATLTADKSSSTAYMQLSSLTSEDSAVYYCASAMDYWGQGTSVTVSS
VL: DVVLTQTPLSLPVSLGDQASISCRSSQSLLHSNGNTYLQWFLQRSGQSPKLLIYKVSNRFYGVPDRFSGSGSGTDFTLKISRVEAEDLGVYFCSQSIDVPRTFGGGTKLEIK
notes: as for B1
Consider B2, for which the EC50 turned out to be 3.67 nM in assay [1] and 2.39 nM in assay [2]. Further, the binding result in assay [3] is “binds”.
